According to PMC7619190, “Pervanadate-induced oxidation relieves autoinhibition of SRC protein tyrosine kinase” (Science signaling, 2026):
Where no end group is shown, it is not given here. [ ]: non-standard residue; d: D form. pY = N[C@@H](Cc1ccc(OP(=O)(O)O)cc1)C(=O)O

B1: peroxiredoxin 1 (PRDX1) (natural protein, human (endogenous in HEK293T), UniProt Q06830 1-199, looked up)
chain: MSSGNAKIGHPAPNFKATAVMPDGQFKDISLSDYKGKYVVFFFYPLDFTFVCPTEIIAFSDRAEEFKKLNCQVIGASVDSHFCHLAWVNTPKKQGGLGPMNIPLVSDPKRTIAQDYGVLKADEGISFRGLFIIDDKGILRQITVNDLPVGRSVDETLRLVQAFQFTDKHGEVCPAGWKPGSDTIKPDVQKSKEYFSKQK
notes: peroxiredoxin 1, endogenous in HEK293T cells; Disulfide-linked dimer seen on non-reducing gels; source: endogenous, HEK293T lysate
B2: optimized SRC binding phosphopeptide (EPQpYEEIP) (peptide)
peptide: EPQ[pY]EEIP
notes: source: synthetic peptide, bought: Biosynth (95% purity)

Experiments:
[1] = target: the molecule itself; test: non-reducing SDS-PAGE and immunoblot; HEK293T cells, PV time course, washed with PBS with catalase and NEM, lysed in 2% SDS with NEM; disulfide-linked dimer as slower migrating species
[2] = target: T1, human SRC SH2 domain (Gln147-Lys252), wild type (human, UniProt P12931-1 147-252); test: ITC; peptide (400 uM) titrated into SRC SH2 (40 uM) in the cell, 25 C, MicroCal PEAQ-ITC Automated; SH2 domain pretreated with 1 mM TCEP (reducing conditions); details: both partners purified
T1 construct: SRC SH2 domain, human, residues Gln147-Lys252, cloned in pETM11; numbering on UniProt P12931-1; Used after pretreatment with 1 mM TCEP (reduced) or 0.1 mM pervanadate (cysteines oxidised; which residues were oxidised in this sample was not determined); The two states are told apart by the assay (a1, a2); also called SH2^WT; SRC SH2^WT

Binder | stoichiometry N [1] | binding result [2]
B1 | 2 | –
B2 | – | binds
